# In the supplement of paper PMC11780869:
# System: Bacillus subtilis
# Assay: cleaved RNA product abundance (RNA/gDNA barcode ratio) relative to median wild-type variant (ratio to wild type); higher = more accumulation of the downstream cleavage product
# How it was run: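 B. subtilis strains with chromosomally integrated reporter mRNAs (truncated aprE or tetM) holding barcoded, mutagenized RNase Y cleavage-site windows grew in LB at 37°C from OD600 0.0003 to 0.3. Cleaved product abundance is each construct's RNA:gDNA barcode ratio, scaled to the median construct with the unmutated site. It came from sequencing barcodes of gel-selected, reverse-transcribed cleaved RNA and of genomic DNA.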
# [1] = experiment (reporter, strain, medium): exp 2b: truncated aprE reporter, strain BJT200, cleavage site: cggR-gapA (positions -7 to +36 mutated)
# [2] = experiment (reporter, strain, medium): exp 4a: truncated aprE reporter, strain BJT201 with 2% xylose (RNase J1 expressed), cleavage site: cggR-gapA (positions -7 to +36 mutated)
# [3] = experiment (reporter, strain, medium): exp 8a: truncated aprE reporter, strain BJT201 with 2% xylose (RNase J1 expressed), cleavage site: glnRA (positions -5 to +31 mutated)
Sequence,cleaved RNA product abundance [2],cleaved RNA product abundance [3],further results
ACAGACGAAGGAGCCGCAAAGATGTTATTAAGCGATGAATAATCCCTCAATATAAATATCTCTCACTTATTTAAA,0.11,–,cleaved RNA product abundance [1]: 0.0873
ACAGACGAAGGAGCCGCAAACAAGTTATTAAGGGATGAATAATCCCTAAATATAAATATCTCTCACTTATTTAAA,0.47,–,–
ACAGACGAAGGAGCCGCAAAGATGTTATTAAGGGATGAATAATCCCTCATTATAAATATCTCTCACTTATTTAAA,0.411,–,–
ACAGACGAAGGAGCCGCGAAGAAGTTATTAAAGGATGAATAATCCCTCAATATAAATATCTCTCACTTATTTAAA,0.258,–,–
CGACATGTCCCGCTTCTTTCATTAATCCGTTAGCAACTGTTTTGCTATATACAATTAACTTTTAAGAGGAGGAAT,–,2.58,–
ACAGACGAAGGAGCCGCAAAGAAGTTATTAAGGGAAGAATAATCCCTGAATATAAATATCTCTCACTTATTTAAA,0.374,–,–
CGACATGTCCCGCTTCTTTCATTAATCCGTTAGCAAATGTTTTGATATATACATTTACCTTTTAAGAGGAGGAAT,–,0.418,–
ACAGACGAAGGAGCCGCAAAGAAGTTATTAAGGGTTGAATAATCCCACAATATAAATATCTCTCACTTATTTAAA,0.0861,–,–
CGACATGTCCCGCTTCTTTCATTAATCCGTTAGGAACTGATTTGCTATATACATTTACCTTTTAAGAGGAGGAAT,–,0.415,–
ACAGACGAAGGAGCCGCAAAGAAATTATTAAGGGATGAATAATCCCTCATTATAAATATCTCTCACTTATTTAAA,0.514,–,cleaved RNA product abundance [1]: 0.197
ACAGACGAAGGAGCCGCAAAGAAGTTATTAAGTGATGAATAATGCCTCAATATAAATATCTCTCACTTATTTAAA,–,–,cleaved RNA product abundance [1]: 0.1
CGACATGTCCCGCTTCTTTCATTAATCCGTTTGCAACTGTTTTGCTATATACATATACCTTTTAAGAGGAGGAAT,–,0.478,–
ACAGACGAAGGAGCCGCAAAGAAGTTATTACGGGATGAATAATCCCTAAATATAAATATCTCTCACTTATTTAAA,0.394,–,cleaved RNA product abundance [1]: 0.428
CGACATGTCCCGCTTCTTTCATTAATACGTTAGCAACTGTTTAGCTATATACATTTACCTTTTAAGAGGAGGAAT,–,0.376,–
ACAGACGAAGGAGCCGCCAAGAAGTTATTAAGGGATGAATAATCCATCAATATAAATATCTCTCACTTATTTAAA,0.327,–,–
ACAGACGAAGGAGCCGCAAAGAAGTTATTAAAGGATGCATAATCCCTCAATATAAATATCTCTCACTTATTTAAA,0.312,–,–
ACAGACGAAGGAGCCGCAATGAAGTTATTAAGGGATGAATACTCCCTCAATATAAATATCTCTCACTTATTTAAA,–,–,cleaved RNA product abundance [1]: 0.379
ACAGACGAAGGAGCCGCTAAGAAGTTATTAAGGGATGAATAATCCCTCAACATAAATATCTCTCACTTATTTAAA,0.291,–,–
CGACATGTCCCGCTTCTTTCATTAATCTGTTAGCAACTGTTTTGCTATATACATTTACCATTTAAGAGGAGGAAT,–,2.04,–
ACAGACGAAGGAGCCGCAAAGCAGTTATTAAGGGATGAGTAATCCCTCAATATAAATATCTCTCACTTATTTAAA,0.658,–,–
ACAGACGAAGGAGCCGCAAAGAAGTTAAAAAAGGATGAATAATCCCTCAATATAAATATCTCTCACTTATTTAAA,0.227,–,–

Sequence,cleaved RNA product abundance [2],cleaved RNA product abundance [3],further results
ACAGACGAAGGAGCCGCAAAGAAATTATTAAAAGATGAATAATCCCTCAATATAAATATCTCTCACTTATTTAAA,0.083,–,–
CGACATGTCCCGCTTCTTTCATTAATCCGTTAGCAACTGTTTTGGTATATACATTTACATTTTAAGAGGAGGAAT,–,0.529,–
ACAGACGAAGGAGCCGCAACGAAGTTATTAAGGAATAAATAATCCCTCAATATAAATATCTCTCACTTATTTAAA,0.0859,–,–
ACAGACGAAGGAGCCGCAAAGAACTTATTAAGGGATGACTAATCCCTCAATATAAATATCTCTCACTTATTTAAA,0.382,–,–
CGACATGTCCCGCTTCTTTCATTAATCCGTTAGAAGCTGTTTTGCTATATACATTTACCTTTTAAGAGGAGGAAT,–,0.23,–
ACAGACGAAGGAGCCGCAAAGAAGTTATTAAGAGATGAATAATGCCTCAATATAAATATCTCTCACTTATTTAAA,0.1,–,–
CGACATGTCCCGCTTCTTTCATTATTCCGTTAGAAACTGTTTTGCTATATACACTTACCTTTTAAGAGGAGGAAT,–,0.302,–
CGACATGTCCCGCTTCTTTCATTAATCCGTTAGCAACTGTTTTACTATATACATTTACCCTTTAAGAGGAGGAAT,–,0.921,–
CGACATGTCCCGCTTCTTTCATTAATACGTTAGCAACTGTTTTGCTATATACATTTACTTTTTAAGAGGAGGAAT,–,0.472,–
ACAGACGAAGGAGCCGCAAAGAAGTTATTAGGGGATGAATAATACCTCAATATAAATATCTCTCACTTATTTAAA,0.211,–,–
ACAGACGAAGGAGCCGCAAAGAAGTTGTTAAGCGATGAATAATCCCTCAATATAAATATCTCTCACTTATTTAAA,0.0544,–,–
CGACATGTCCCGCTTCTTTCATTAATCCTTTAGCAACTATTTTGCTATATACATTTACCTTTTAAGAGGAGGAAT,–,0.828,–
CGACATGTCCCGCTTCTTTCATTAATCCGTTAGCTACTGTTTTGCTATATACATTTACCTTTTAAGAGGAGGAAT,–,0.56,–
ACAGACGAAGGAGCCGGAAAGAAGTTATTAAGGGATGAATAATCCCTCAATATAAATATCTCTCACTTATTTAAA,–,–,"cleaved RNA product abundance (experiment (reporter, strain, medium): exp 6: tetM reporter, strain 168, cleavage site: cggR-gapA (positions -7 to +36 mutated)): 0.897"
CGACATGTCCCGCTTCTTTCATTAATCTTTTAGCAACTGTTTTACTATATACATTTACCTTTTAAGAGGAGGAAT,–,0.94,–
ACAGACGAAGGAGCCGCAAAGAAGTTATTAAGGGATGAATAATCCCTAAAAATAAATATCTCTCACTTATTTAAA,0.423,–,cleaved RNA product abundance [1]: 0.213
ACAGACGAAGGAGCCGCAAAGAAGTTAGTAAGCGATGAATAATCCCTCAATATAAATATCTCTCACTTATTTAAA,0.0715,–,–
ACAGACGAAGGAGCCGCAAAGAAGTTATTAATGGATGAATAAACCCTCAATATAAATATCTCTCACTTATTTAAA,0.107,–,cleaved RNA product abundance [1]: 0.0999
ACAGACGAAGGAGCCGCAAAGAAGTTATTAAGGGATAAATAATCCCTGAATATAAATATCTCTCACTTATTTAAA,0.734,–,–
ACAGACGAAGGAGCCGCAAAGAAGTTATTAAGGGATGAATAATCCCTGAATATAAATAGCTCTCACTTATTTAAA,0.256,–,–
ACAGACGAAGGAGCCGCAAAGAAGTTATTAAGGGATGAATAATCGCTCAATATATATATCTCTCACTTATTTAAA,0.0772,–,cleaved RNA product abundance [1]: 0.113

Sequence,cleaved RNA product abundance [2],cleaved RNA product abundance [3],further results
CGACATGTCCCGCTTCTTTCATTAATCCGTTAGCAACTGTTTTGCAATATACATTAACCTTTTAAGAGGAGGAAT,–,0.691,–
CGACATGTCCCGCTTCTTTCATTAATCCGTTATCATCTGTTTTGCTATATACATTTACCTTTTAAGAGGAGGAAT,–,0.267,–
ACAGACGAAGGAGCCGCATAGAAGTTATTAAGGGATGAATAATCCCTCAATATAAATTTCTCTCACTTATTTAAA,0.644,–,–
ACAGACGAAGGAGCCGCAAAGAAGTTATTAAGGGTTGAATAATCCCTCTATATAAATATCTCTCACTTATTTAAA,0.151,–,cleaved RNA product abundance [1]: 0.157
CGACATGTCCCGCTTCTTTCATTAAACCGTTAGCAACTGTTTAGCTATATACATTTACCTTTTAAGAGGAGGAAT,–,0.248,–
CGACATGTCCCGCTTCTTTCATTAATCCGTTACCAACTGTTTTGCTACATACATTTACCTTTTAAGAGGAGGAAT,–,0.326,–
ACAGACGAAGGAGCCGCAAAGAAGTTATTAAGGGATGAATAATCGCTAAATATAAATATCTCTCACTTATTTAAA,–,–,cleaved RNA product abundance [1]: 0.0982
ACAGACGAAGGAGCCGCAAAGAACTTATTAAGGGGTGAATAATCCCTCAATATAAATATCTCTCACTTATTTAAA,0.411,–,–
ACAGACGAAGGAGCCGCAAAGAAGTTATTAAGGGATTAATAACCCCTCAATATAAATATCTCTCACTTATTTAAA,0.72,–,cleaved RNA product abundance [1]: 0.749
ACAGACGAAGGAGCCGCTAAGAAGTTATTAAGGGATGAATAAACCCTCAATATAAATATCTCTCACTTATTTAAA,0.689,–,cleaved RNA product abundance [1]: 0.537
ACAGACGAAGGAGCCGCAAAGAAATTATTAAGGGATGAATAATCCCTCAATTTAAATATCTCTCACTTATTTAAA,0.153,–,–
CGACATGTCCCGCTTCTTTCATTAATCCGTTACCAACTGTTGTGCTATATACATTTACCTTTTAAGAGGAGGAAT,–,0.182,–
ACAGACGAAGGAGCCGCAAAGAAGTTATTCAGGGATGAATAATCCCTCAATATAAATAACTCTCACTTATTTAAA,–,–,cleaved RNA product abundance [1]: 0.615
CGACATGTCCCGCTTCTTTCATTACTACGTTAGCAACTGTTTTGCTATATACATTTACCTTTTAAGAGGAGGAAT,–,2.07,–
ACAGACGAAGGAGCCGCAAAGAAGTTATAAAGGGACGAATAATCCCTCAATATAAATATCTCTCACTTATTTAAA,0.326,–,–
ACAGACGAAGGAGCCGCAAAGAAGTTATTAAGGGATGGATAATCCCTCGATATAAATATCTCTCACTTATTTAAA,0.235,–,–
CGACATGTCCCGCTTCTTTCATTAATCGGTTAGCAACTGTTTTGCTATATACATTAACCTTTTAAGAGGAGGAAT,–,1.51,–
CGACATGTCCCGCTTCTTTCATTAACCCGTTAGTAACTGTTTTGCTATATACATTTACCTTTTAAGAGGAGGAAT,–,0.255,–
CGACATGTCCCGCTTCTTTCATTACTCCGTTAGCAACTTTTTTGCTATATACATTTACCTTTTAAGAGGAGGAAT,–,2.09,–
ACAGACGAAGGAGCCGCAAAAAATTTATTAAGCGATGAATAATCCCTCAATATAAATATCTCTCACTTATTTAAA,0.113,–,–
